Results from US10513547B2, “Peptides and combination of peptides and scaffolds thereof for use in immunotherapy against colorectal carcinoma (CRC) and other cancers” (Immatics Biotechnologies GmbH, priority 2015, dated 2019).

target: HLA-A*02:01 (Homo sapiens, UniProt P04439, D140Y/D185E/D98H/E176V/E277Q/G131W/G231S/I119V/I121R/I166T/I218V/L300P/L318F/N151K/N90K/P208A/P217A/Q86G/Q94H/R138H/R169H/T345S); assay: MHC binding assay (UV-ligand exchange, beta2m ELISA, peptide exchange yield); settings: binding to HLA-A*02:01
Text: Candidate peptides for T cell based therapies according to the present invention were further tested for their MHC binding capacity (affinity). The individual peptide-MHC complexes were produced by UV-ligand exchange, where a UV-sensitive peptide is cleaved upon UV-irradiation, and exchanged with the peptide of interest as analyzed. Only peptide candidates that can effectively bind and stabilize the peptide-receptive MHC molecules prevent dissociation of the MHC complexes. To determine the yield of the exchange reaction, an ELISA was performed based on the detection of the light chain ([…]) of stabilized MHC complexes. The assay was performed as generally described in Rodenko et al. (Rodenko et al., 2006).
96 well MAXISorp plates (NUNC) were coated over night with 2 ug/ml streptavidin in PBS at room temperature, washed 4× and blocked for 1 h at 37° C. in 2% BSA containing blocking buffer. Refolded HLA-A*02:01/MLA-001 monomers served as standards, covering the range of 15-500 ng/ml. Peptide-MHC monomers of the UV-exchange reaction were diluted 100 fold in blocking buffer. Samples were incubated for 1 h at 37° C., washed four times, incubated with 2 ug/ml HRP conjugated anti-β2m for 1 h at 37° C., washed again and detected with TMB solution that is stopped with […]. Absorption was measured at 450 nm. Candidate peptides that show a high exchange yield (preferably higher than 50%, most preferred higher than 75%) are generally preferred for a generation and production of antibodies or fragments thereof, and/or T cell receptors or fragments thereof, as they show sufficient avidity to the MHC molecules and prevent dissociation of the MHC complexes.

Peptide exchange (MHC class I binding score, peptide exchange yield)	Substance
“+++” (≥50 = +++)	4 (RLAELTVDEFL; listed as Homo sapiens) [compound 4]
“+++” (≥50 = +++)	6 (FLAELPGSLSL; listed as Homo sapiens) [compound 6]
“+++” (≥50 = +++)	8 (ALMLQGVDLL; listed as Homo sapiens) [compound 8]
“++” (≥20% = ++)	14 (FLDKPEDVLL; listed as Homo sapiens) [compound 14]
“+++” (≥50 = +++)	15 (LQLDKEFQL; listed as Homo sapiens) [compound 15]
“+++” (≥50 = +++)	16 (VLVDQSWVL; listed as Homo sapiens) [compound 16]
“+++” (≥50 = +++)	20 (YLKDGDVML; listed as Homo sapiens) [compound 20]
“+++” (≥50 = +++)	23 (FLDANGHFV; listed as Homo sapiens) [compound 23]
“+++” (≥50 = +++)	24 (VLDGVLMEL; listed as Homo sapiens) [compound 24]
“++++” (≥75% = ++++)	25 (SLADRLIGV; listed as Homo sapiens) [compound 25]
“++” (≥20% = ++)	26 (GLASKENFSNVSL; listed as Homo sapiens) [compound 26]
“++” (≥20% = ++)	27 (LLADEDSSYL; listed as Homo sapiens) [compound 27]
“++++” (≥75% = ++++)	28 (ALTEIQEFI; listed as Homo sapiens) [compound 28]
“+++” (≥50 = +++)	29 (QMLDVAIRV; listed as Homo sapiens) [compound 29]
“+” (≥10% = +)	30 (GLSSAYGGL; listed as Homo sapiens) [compound 30]
“+++” (≥50 = +++)	33 (ALWEKNTHL; listed as Homo sapiens) [compound 33]
“+++” (≥50 = +++)	34 (ILLEKSVSV; listed as Homo sapiens) [compound 34]
“+++” (≥50 = +++)	35 (KLLDLTVRI; listed as Homo sapiens) [compound 35]
“+++” (≥50 = +++)	36 (GLLESPSIFNFTA; listed as Homo sapiens) [compound 36]
“++” (≥20% = ++)	40 (ALSNVIHKV; listed as Homo sapiens) [compound 40]
“++” (≥20% = ++)	41 (ILDDSFKLL; listed as Homo sapiens) [compound 41]

Peptide exchange (MHC class I binding score, peptide exchange yield)	Substance
“++” (≥20% = ++)	43 (TLDAAQPRV; listed as Homo sapiens) [compound 43]
“+++” (≥50 = +++)	44 (SLESKLTSV; listed as Homo sapiens) [compound 44]
“+++” (≥50 = +++)	45 (ALAELLHGA; listed as Homo sapiens) [compound 45]
“+++” (≥50 = +++)	46 (GLDDRYSLV; listed as Homo sapiens) [compound 46]
“++” (≥20% = ++)	48 (FLDASDPAL; listed as Homo sapiens) [compound 48]
“+++” (≥50 = +++)	50 (TLMAEMHVV; listed as Homo sapiens) [compound 50]
“++” (≥20% = ++)	51 (QVWEIQHTV; listed as Homo sapiens) [compound 51]
“++” (≥20% = ++)	52 (ALDSSNSMQTI; listed as Homo sapiens) [compound 52]
“+++” (≥50 = +++)	53 (FLLGSEIKL; listed as Homo sapiens) [compound 53]
“+++” (≥50 = +++)	54 (ALLNGEYLLAA; listed as Homo sapiens) [compound 54]
“++” (≥20% = ++)	56 (VLFTDEGVPKFL; listed as Homo sapiens) [compound 56]
“+++” (≥50 = +++)	57 (NLLEKENYL; listed as Homo sapiens) [compound 57]
“++” (≥20% = ++)	58 (AMADKMDMSL; listed as Homo sapiens) [compound 58]
“++” (≥20% = ++)	60 (VLDEDEPRFL; listed as Homo sapiens) [compound 60]
“+++” (≥50 = +++)	61 (KLLKLFQGV; listed as Homo sapiens) [compound 61]
“++” (≥20% = ++)	62 (YLAPENGYL; listed as Homo sapiens) [compound 62]
“++” (≥20% = ++)	63 (KLFSILSTV; listed as Homo sapiens) [compound 63]
“++” (≥20% = ++)	66 (GLDDGPDFL; listed as Homo sapiens) [compound 66]
“+++” (≥50 = +++)	67 (SLNDLEKDVMLL; listed as Homo sapiens) [compound 67]
“+++” (≥50 = +++)	68 (SILQFVHMV; listed as Homo sapiens) [compound 68]
“++” (≥20% = ++)	69 (GMLNEAEGKAIKL; listed as Homo sapiens) [compound 69]

Peptide exchange (MHC class I binding score, peptide exchange yield)	Substance
“+++” (≥50 = +++)	70 (MISELEVRL; listed as Homo sapiens) [compound 70]
“+++” (≥50 = +++)	71 (RLWTEIPTAI; listed as Homo sapiens) [compound 71]
“+++” (≥50 = +++)	72 (YLLDYPNNLL; listed as Homo sapiens) [compound 72]
“+++” (≥50 = +++)	73 (YLFDIAVSM; listed as Homo sapiens) [compound 73]
“+++” (≥50 = +++)	74 (YLMGFLHAV; listed as Homo sapiens) [compound 74]
“++” (≥20% = ++)	75 (EMIENIQSV; listed as Homo sapiens) [compound 75]
“+++” (≥50 = +++)	76 (YLIGEKQHYL; listed as Homo sapiens) [compound 76]
“++” (≥20% = ++)	77 (SLLKRDFGA; listed as Homo sapiens) [compound 77]
“++” (≥20% = ++)	78 (ALDPELLLL; listed as Homo sapiens) [compound 78]
“++” (≥20% = ++)	79 (SLAADQLLKL; listed as Homo sapiens) [compound 79]
“++” (≥20% = ++)	80 (QVDEVVDIMRV; listed as Homo sapiens) [compound 80]
“+++” (≥50 = +++)	81 (ALLSQQTHL; listed as Homo sapiens) [compound 81]
“++” (≥20% = ++)	82 (QLYEEPDTKL; listed as Homo sapiens) [compound 82]
“+++” (≥50 = +++)	83 (LTIEDGIFEV; listed as Homo sapiens) [compound 83]
“+++” (≥50 = +++)	84 (SMVEDITGLRL; listed as Homo sapiens) [compound 84]
“++” (≥20% = ++)	85 (ILHDINSDGVL; listed as Homo sapiens) [compound 85]
“++” (≥20% = ++)	86 (KVFPGKISV; listed as Homo sapiens) [compound 86]
“+++” (≥50 = +++)	87 (LLFDAPDLRL; listed as Homo sapiens) [compound 87]
“++++” (≥75% = ++++)	88 (KLDIKVETV; listed as Homo sapiens) [compound 88]
“+++” (≥50 = +++)	89 (SLIEYEFRV; listed as Homo sapiens) [compound 89]
